Publication PMC7948976, “KIF3A accelerates KIF3C within the kinesin-2 heterodimer to generate symmetrical phosphate release rates for each processive step” (The Journal of Biological Chemistry, 2020)

Key:
Assay in all cases: stopped-flow presteady-state phosphate release, MDCC-PBP fluorescence; hyperbolic fit of initial exponential rates
Type in all cases: biochemical, Mus musculus
[1] = substrate: Nc1ncnc2c1ncn2[C@@H]1O[C@H](COP(=O)(O)OP(=O)(O)OP(=O)(O)O)[C@@H](O)[C@H]1O; conditions: preformed microtubule-KIF3 complex (2 μM MT, 0.5 μM dimer in syringe), 250 mM KCl in ATP syringe, 5 mM magnesium acetate, pH 7.2, 25 °C, not steady-state Km
Source text: stopped-flow presteady-state phosphate release, MDCC-PBP fluorescence; hyperbolic fit of initial exponential rates on KIF3AC

[2] = substrate: Nc1ncnc2c1ncn2[C@@H]1O[C@H](COP(=O)(O)OP(=O)(O)OP(=O)(O)O)[C@@H](O)[C@H]1O; conditions: preformed microtubule-KIF3 complex (2 μM MT, 0.5 μM dimer in syringe), 300 mM KCl in ATP syringe, 5 mM magnesium acetate, pH 7.2, 25 °C, not steady-state Km
Source text: stopped-flow presteady-state phosphate release, MDCC-PBP fluorescence; hyperbolic fit of initial exponential rates on KIF3AA

[3] = substrate: Nc1ncnc2c1ncn2[C@@H]1O[C@H](COP(=O)(O)OP(=O)(O)OP(=O)(O)O)[C@@H](O)[C@H]1O; conditions: preformed microtubule-KIF3 complex (2 μM MT, 0.5 μM dimer in syringe), 300 mM KCl in ATP syringe, 5 mM magnesium acetate, pH 7.2, 25 °C, not steady-state Km; remark: listed apart in the source
Source text: stopped-flow presteady-state phosphate release, MDCC-PBP fluorescence; hyperbolic fit of initial exponential rates on KIF3CC

B1: KIF3AC (Mus musculus) (protein)
chain 1: MPINKSEKPESCDNVKVVVRCRPLNEREKSMCYRQAVSVDEMRGTITVHKTDSSNEPPKTFTFDTVFGPESKQLDVYNLTARPIIDSVLEGYNGTIFAYGQTGTGKTFTMEGVRAVPGLRGVIPNSFAHIFGHIAKAEGDTRFLVRVSYLEIYNEEVRDLLGKDQTQRLEVKERPDVGVYIKDLSAYVVNNADDMDRIMTLGHKNRSVGATNMNEHSSRSHAIFTITIECSEKGVDGNMHVRMGKLHLVDLAGSERQAKTGATGQRLKEATKINLSLSTLGNVISALVDGKSTHVPYRNSKLTRLLQDSLGGNSKTMMCANIGPADYNYDETISTLRYANRAKNIKNKARINEDPKDALLRQFQKEIEELKKKL
chain 2: MASKTKASEALKVVARCRPLSRKEEAAGHEQILTMDVKLGQVTLRNPRAAPGELPKTFTFDAVYDASSKQADLYDETVRPLIDSVLQGFNGTVFAYGQTGTGKTYTMQGTWVEPELRGVIPNAFEHIFTHISRSQNQQYLVRASYLEIYQEEIRDLLSKEPGKRLELKENPETGVYIKDLSSFVTKNVKEIEHVMNLGNQARAVGSTHMNEVSSRSHAIFVITVECSERGSDGQDHIRVGKLNLVDLAGSERQNKAGPNAAGGPATQPTAGGGSGSGSASGSASSGERPKEASKINLSLSALGNVIAALAGNRSTHIPYRDSKLTRLLQDSLGGNAKTIMVATLGPASHSYDESLSTLRFANRAKNIKNKPRVNEDPKDTLLREFQEEIARLKAQL
notes: heterodimer; motor domain, neck linker and helix α7 (KIF3A Met1-Leu374, KIF3C Met1-Leu396), each fused to EB1 dimerization domain; KIF3A StrepII tag, KIF3C His8 tag, tags not cleaved; E. coli; dimer MW 98,318
B1 gave a K0.5 [1] of 28.2 ± 1.8 µM.

B2: KIF3AA (Mus musculus) (protein)
chain: B1 chain 1
notes: engineered homodimer; motor domain Met1-Leu374 fused to EB1 dimerization domain; His8 tag not cleaved; E. coli; dimer MW 97,004
Work on B2 yielded a K0.5 [2] of 30.9 ± 4.7 µM.

B3: KIF3CC (Mus musculus) (protein)
chain: B1 chain 2
notes: engineered homodimer; motor domain, neck linker and helix α7 (Met1-Leu396) fused to EB1 dimerization domain; His8 tag not cleaved; E. coli; dimer MW 99,518 (borders printed for the KIF3C chain of KIF3AC; mass agrees)
In the case of B3, the K0.5 [3] is reported as 13.9 ± 3.5 µM.
